The text below walks through data of the supplement of paper PMC9170038.

In this data set the test system is K4 kissing-loop RNA reporter. The experiment in a line: apparent KD of K4 kissing-loop reporter; higher = weaker reporter binding. The following applies: Eterna round: R107. Here is the method:
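RNA-MaP round R107: designed RNA switches with theophylline, tryptophan, arginine or FMN aptamers are transcribed on-chip within common flanks. They are titrated with a labelled K4 kissing-loop RNA reporter in RNA-MaP buffer (100 mM Tris pH 7.5, 80 mM KCl, 4 mM MgCl2), without ligand or with the indicated ligand. Median apparent KD per design.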

[1] abbreviates: input ligand: theophylline 20 uM.
[2] abbreviates: input ligand: tryptophan 2.4 mM.
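Further: bound reporter read as fluorescence of individual clusters on recovered sequencing chips by microscopy, with normalized cluster intensities fitted with a binding model.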

Turning to “UCCUCGAAUCGACCUCGAAAGAGGAUGGAUACCAGAGAAGAAAUUCUCCCUUGGCAGCCAGUGAUGUUGGAACGAGGUAAAUAAA [#SwitchBubble 20 #K4Late]”, the “apparent KD of K4 kissing-loop reporter” value worked out at 508 nM (input ligand: FMN 200 uM); 412 nM (input ligand: arginine 13.2 mM); 517 nM (input ligand: none); 327 nM under setting [1]; 424 nM under setting [2].
In the same order, the values of “UCCUGCAAUCAACCACGAAAGUGGUUCGAUACCAGAGUCGAAAGACUCCCUUGGCAGCGAGUGAUGUUCGAGCAGGUAAAAUAAA” are 862 nM, 642 nM, 754 nM, 646 nM and 602 nM.
With “UCCUGCAAUCUGCCACGAAAGUGGAUUGAUACCAGAGUCGAAAGACUCCCUUGGCAGCGAGUGAUGUUCGAAGCAGGUAAAUAAA”, the “apparent KD of K4 kissing-loop reporter” value came out at 99.4 nM (input ligand: FMN 200 uM); 149 nM (input ligand: arginine 13.2 mM); 124 nM (input ligand: none); 160 nM under setting [1]; 91.7 nM under setting [2].
In the same order, the values of “UCGAGUGAUGUUCGAUUUCAGUGAAGAGAUACCAGCCGCAGUGUAGGCCCUUGGCAGCUCGGCUAUUAUGACAUAUGCAGUUUAG [theeternabot_sameState_KL_Theo_A_29]” are 125 nM, 121 nM, 119 nM, 122 nM and 80 nM.
The corresponding values for “UCGCAAGAAUCACUGUGGAGGACCUUGGCCAAGGAUAUCAAAGGAUUGAGAAGGUGGCGCCAAGUGAUGUUUGGAUGCCGGGCAG [theeternabot_exclusion_KL_FMN_A_36]” are 149 nM, 286 nM, 293 nM, 183 nM and 256 nM.
In the same order, the values of “UCGCAUUAACCGGAUACCAGCUUAGUGGGAUCUUCAAUCCGACAGAAAGUGAUGUUUUCUAGCCCUUGGCAGCCGAGAUUAUCAC [theeternabot_sameState_KL_Theo_B_50]” are 231 nM, 333 nM, 331 nM, 412 nM and 348 nM.
Regarding “UCGCCCGAUGGAGAUACCAGCAGUUGUGCAGUGAUGUUGCACAAGUACUCGCUCCAUUGCUGCCCUUGGCAGCUCCCGGCAAACA [Enraed]”, the “apparent KD of K4 kissing-loop reporter” value (input ligand: FMN 200 uM) worked out at 93.3 nM; the “apparent KD of K4 kissing-loop reporter” value (input ligand: arginine 13.2 mM) turned out to be 85 nM; the “apparent KD of K4 kissing-loop reporter” value (input ligand: none) was found to be 87.6 nM; the “apparent KD of K4 kissing-loop reporter” value under setting [1] is 82.8 nM; the “apparent KD of K4 kissing-loop reporter” value under setting [2] was determined as 89.3 nM.
For the sequence “UCGCCGCUCACGGCCGCCACUAAGCCCAAGACCAGAGAGUGAUGUUCUAUCCACGUUUCAAUUUUUAGGACCGGGUGAAAGGCGA [theeternabot_sameState_KL_Trp_B_14]”, the “apparent KD of K4 kissing-loop reporter” value reads like this: (input ligand: FMN 200 uM) 779 nM; (input ligand: arginine 13.2 mM) 411 nM; (input ligand: none) 729 nM; under setting [1], 625 nM; under setting [2], 618 nM.
The corresponding values for “UCGGCGGAGUGAUGUUCCUAUGUCCAAGAUACCAGUCUAUGAACGGACCCUUGGCAGCUUCCAUUAGGUUACUAUUUAGACUCAU [theeternabot_exclusion_KL_Theo_A_10]” are 190 nM, 227 nM, 215 nM, 248 nM and 166 nM.
On to “UCUCCAAAGUCGGCCGCCACUCCGGGCCCUAUAAAUGGGCGCAGUGAUGUUGCGGCUAGGCCUCUGAGGACCGGGACUUUGUAGA [Estiorquin]”, for which the “apparent KD of K4 kissing-loop reporter” value reads like this: (input ligand: FMN 200 uM) 75.5 nM; (input ligand: arginine 13.2 mM) 55.7 nM; (input ligand: none) 31.3 nM; under setting [1], 129 nM; under setting [2], 164 nM.
In the same order, the values of “UCUGAAUUAUCUGAUACCAGACUUUUUGUAUUUAUUAAAACUAGUGAUGUUAGUUUAUCUGUCCCUUGGCAGCAGUUUCUACAGA [JR_Nu_ExcTheophyB_Sub022]” are 79.9 nM, 95.4 nM, 83.8 nM, 90.8 nM and 72.5 nM.
In the same order, the values of “UCUGGAGUAUAUGAUACCAGCAGUGAGAGACAGGAAGUAUAGUGAUGUUAUAUGAGAGAAUGCCCUUGGCAGCGUGUGCGGUGGC [SSTheophylB.Q]” are 118 nM, 77.8 nM, 61.6 nM, 81.4 nM and 58.3 nM.
In the same order, the values of “UGACAUUGCUCAGAUACCAGACCUGAGGAACACCCAGGUGCCAAAACGUACUAAAUAAAGGUCCCUUGGCAGCUGAGCAAUGUCU [TheoBX 13]” are 45.7 nM, 35.1 nM, 35.4 nM, 77.6 nM and 59.7 nM.
For the sequence “UGACUACAAGGAAAAUAAUCCUAGUGAUGUUAGGAUAUGCUGAUAAGCAGAAGGAACUGAGAUCGAAAGAUCUCAAAUGUAGUCU [FmnAX 27 Mat Inspired #SwitchBubble #StaticStem #K4Early]”, the “apparent KD of K4 kissing-loop reporter” value was 121 nM (input ligand: FMN 200 uM); 92 nM (input ligand: arginine 13.2 mM); 87.2 nM (input ligand: none); 102 nM under setting [1]; 93.5 nM under setting [2].
In the same order, the values of “UGACUACAUAAGGAUUAAUCCUAGUGAUGUUAGGAUAUGCUGAUAAGCAGAAGGAACGGAGAUCGAAGGAUCUCAUAUGUAGUCU [whbob_Ex_FMNA__2th195]” are 457 nM, 135 nM, 164 nM, 138 nM and 164 nM.
For “UGACUGGACUGAAGGAGCGCGCGAGACAAAGUCUCGAACUGCUAGUGAUGUUAGCGAAUAACGCAGGUAGGUCGCAGUCUAGUCU [ArgBS 14 #SwitchBubble #StaticStem]”, the “apparent KD of K4 kissing-loop reporter” value is, setting by setting: (input ligand: FMN 200 uM) 177 nM; (input ligand: arginine 13.2 mM) 146 nM; (input ligand: none) 175 nM; under setting [1], 155 nM; under setting [2], 156 nM.
As for “UGACUGGACUGAAGGAGCGGGCGAGACAAAGUCUCGAACUCGUAGUGAUGUUAUGAAAUAACCCAGGUAGGUCGCAGUCUAGUCU”, the “apparent KD of K4 kissing-loop reporter” value was 1130 nM (input ligand: FMN 200 uM); 684 nM (input ligand: arginine 13.2 mM); 892 nM (input ligand: none); 868 nM under setting [1]; 789 nM under setting [2].
